According to patent US11702475B2, “Cysteine engineered fibronectin type III domain binding molecules” (Janssen Biotech, Inc., priority 2013, dated 2023):
Changes are numbered by the printed parent chain. Names and notes keep the numbering of the source.

What was measured:
[1] = Thermal stability of cysteine-NEM conjugates by DSC; assay type: physicochemical; conditions: for First Scan Tm: DSC 25-100 °C, 1 °C per minute; for Second Scan Tm: second identical scan
Procedure: The thermal stability of cysteine-NEM conjugates was assessed by differential scanning calorimetry (DSC). The only the conjugates tested were those determined to express at high levels, conjugate efficiently, and retain EGFR binding. Additionally, cysteine variants within the BC and FG loops were excluded. Stability data was generated by heating a 400 μL aliquot of the variant from 25° C. to 100° C. at a scan rate of 1° C. per minute in a VP-DSC instrument (MicroCal). A second identical scan was completed on the sample in order to assess the reversibility of thermal folding/unfolding. Data was fitted to a 2-state unfolding model in order to calculate the melting temperature (Table 10).

[2] = Analytical size exclusion chromatography (percent monomer); assay type: physicochemical; conditions: NEM-conjugated cysteine variants; SEC, Abs280 monomer region 5.5-6 minutes vs oligomer region 4-5.3 minutes
Procedure: Size exclusion chromatography was used to determine the aggregation state of the FN3 domains binding EGFR. Aliquots (10 μL) of each purified FN3 domain were injected onto a Superdex 75 5/150 column (GE Healthcare) at a flow rate of 0.3 mL/min in a mobile phase of PBS pH 7.4. Elution from the column was monitored by absorbance at 280 nm.
The percent monomer for each protein was determined by integrating the Abs280 signal and comparing the peak in the monomer region (5.5-6 minutes) to the peaks in the oligomer region (4-5.3 minutes).

[3] = tested on: EGFR-overexpressing human tumor cell line H1573; assay: Cytotoxicity assay in H1573 cells; assay type: cell-based; conditions: cysteine variants conjugated to VC-MMAF, Cell TiterGlo at 70 hours, read-out: IC50
Procedure: Cell killing was assessed by measuring viability of the EGFR-overexpressing human tumor cell line H1573 following exposure to the cysteine variant-cytotoxin conjugates. Cells were plated in black-well, clear bottomed, tissue culture-treated plates (Falcon 353219) at 7000/well in 100 μL/well of phenol red free RPMI media (Gibco 11835-030) with 5% fetal bovine serum (Gibco). Cells were allowed to attach overnight at 37° C. in a humidified 5% CO2 atmosphere. Medium was aspirated from 96-well plate and cells were treated with 50 uL of fresh media and 50 uL of 2× inhibitor made up in fresh media. Cell viability was determined by an endpoint assay with Cell TiterGlo (Promega) at 70 hours. IC50 values were determined by fitting data to the equation for a sigmoidal dose response with variable slope using GraphPad Prism 5 (GraphPad Software). Table 11 reports IC50 values obtained from analysis of the CellTiter Glo data.
Conjugates consisting of ECB147 cysteine variants, 83v2-cys, or Tencon-cys linked to a cytotoxic tubulin inhibitor from the auristatin family (FIG. 2) were tested for target-dependent cytotoxicity in cancer cells. The inhibitor was linked to the cysteine-containing protein via a non-cleavable PEG4 linker or an enzyme-cleavable valine-citrulline or valine-lysine linker. Cell killing was assessed by measuring viability of the EGFR-overexpressing human tumor cell lines H1573 and A431 as well as the EGFR-negative tumor cell line MDA-MB-435 following exposure to the protein-cytotoxin conjugates using the procedure described in Example 4.

B1: L32C: cysteine variant of P54AR4-83v2; NEM and VC-MMAF conjugates (conjugate)
chain: LPAPKNLVVSEVTEDSARLSWDDPWAFYESFCIQYQESEKVGEAIVLTVPGSERSYDLTGLKPGTEYTVSIYGVHNVYKDTNMRGLPLSAIFTT
modifications: left off: small tags and cut ends
notes: cysteine variant of P54AR4-83v2; NEM and VC-MMAF conjugates
- First Scan Tm [1]: 71 °C
- Second Scan Tm [1]: 70 °C
- Percent monomer [2]: 100%
- IC50 [3]: 2.92 nM

B2: S10C: cysteine variant of P54AR4-83v2 (SEQ ID NOS: 190 and 228); NEM and VC-MMAF conjugates (conjugate)
chain: MLPAPKNLVVCEVTEDSARLSWDDPWAFYESFLIQYQESEKVGEAIVLTVPGSERSYDLTGLKPGTEYTVSIYGVHNVYKDTNMRGLPLSAIFTT
modifications: NEM or vcMMAF conjugate; EGFR binding FN3 domain
notes: NEM and VC-MMAF conjugates
- First Scan Tm [1]: 68 °C
- Second Scan Tm [1]: 68 °C
- Percent monomer [2]: 80%
- IC50 [3]: 0.43 nM

B3: Q34C: cysteine variant of P54AR4-83v2 (SEQ ID NOS: 197 and 235); NEM and VC-MMAF conjugates (conjugate)
chain: B2 chain with C11S, Q35C
modifications: NEM or vcMMAF conjugate; EGFR binding FN3 domain
notes: NEM and VC-MMAF conjugates
- First Scan Tm [1]: 75 °C
- Second Scan Tm [1]: 74 °C
- Percent monomer [2]: 97%
- IC50 [3]: 0.74 nM

B4: D15C: cysteine variant of P54AR4-83v2 (SEQ ID NOS: 193 and 231); NEM and VC-MMAF conjugates (conjugate)
chain: B2 chain with C11S, D16C
modifications: NEM or vcMMAF conjugate; EGFR binding FN3 domain
notes: NEM and VC-MMAF conjugates
- First Scan Tm [1]: 73 °C
- Second Scan Tm [1]: 73 °C
- Percent monomer [2]: 97%
- IC50 [3]: 0.33 nM

B5: V41C: cysteine variant of P54AR4-83v2 (SEQ ID NOS: 200 and 238); NEM and VC-MMAF conjugates (conjugate)
chain: B2 chain with C11S, V42C
modifications: NEM or vcMMAF conjugate; EGFR binding FN3 domain
notes: NEM and VC-MMAF conjugates
- First Scan Tm [1]: 71 °C
- Second Scan Tm [1]: 71 °C
- Percent monomer [2]: 98%
- IC50 [3]: 1.13 nM

B6: T48C: cysteine variant of P54AR4-83v2 (SEQ ID NOS: 203 and 241); NEM and VC-MMAF conjugates (conjugate)
chain: B2 chain with C11S, T49C
modifications: NEM or vcMMAF conjugate; EGFR binding FN3 domain
notes: NEM and VC-MMAF conjugates
- First Scan Tm [1]: 72 °C
- Second Scan Tm [1]: 72 °C
- Percent monomer [2]: 90%
- IC50 [3]: 0.59 nM

B7: R54C: cysteine variant of P54AR4-83v2 (SEQ ID NOS: 205 and 243); NEM and VC-MMAF conjugates (conjugate)
chain: B2 chain with C11S, R55C
modifications: NEM or vcMMAF conjugate; EGFR binding FN3 domain
notes: NEM and VC-MMAF conjugates
- First Scan Tm [1]: 65 °C
- Second Scan Tm [1]: 65 °C
- Percent monomer [2]: 96%
- IC50 [3]: 0.37 nM

B8: S30C: cysteine variant of P54AR4-83v2 (SEQ ID NOS: 196 and 234); NEM and VC-MMAF conjugates (conjugate)
chain: B2 chain with C11S, S31C
modifications: NEM or vcMMAF conjugate; EGFR binding FN3 domain
notes: NEM and VC-MMAF conjugates
- First Scan Tm [1]: 71 °C
- Second Scan Tm [1]: 71 °C
- Percent monomer [2]: 94%
- IC50 [3]: 0.78 nM

B9: E11C: cysteine variant of P54AR4-83v2 (SEQ ID NOS: 191 and 229); NEM and VC-MMAF conjugates (conjugate)
chain: B2 chain with C11S, E12C
modifications: NEM or vcMMAF conjugate; EGFR binding FN3 domain
notes: NEM and VC-MMAF conjugates
- First Scan Tm [1]: 71 °C
- Second Scan Tm [1]: 72 °C
- Percent monomer [2]: 100%
- IC50 [3]: 0.94 nM

B10: T59C: cysteine variant of P54AR4-83v2 (SEQ ID NOS: 206 and 244); NEM and VC-MMAF conjugates (conjugate)
chain: B2 chain with C11S, T60C
modifications: NEM or vcMMAF conjugate; EGFR binding FN3 domain
notes: NEM and VC-MMAF conjugates
- First Scan Tm [1]: 67 °C
- Second Scan Tm [1]: 67 °C
- Percent monomer [2]: 100%
- IC50 [3]: 0.44 nM

B11: S20C: cysteine variant of P54AR4-83v2 (SEQ ID NOS: 195 and 233); NEM and VC-MMAF conjugates (conjugate)
chain: B2 chain with C11S, S21C
modifications: NEM or vcMMAF conjugate; EGFR binding FN3 domain
notes: NEM and VC-MMAF conjugates
- First Scan Tm [1]: 70 °C
- Second Scan Tm [1]: 70 °C
- Percent monomer [2]: 94%
- IC50 [3]: 0.36 nM

B12: E14C: cysteine variant of P54AR4-83v2 (SEQ ID NOS: 192 and 230); NEM and VC-MMAF conjugates (conjugate)
chain: B2 chain with C11S, E15C
modifications: NEM or vcMMAF conjugate; EGFR binding FN3 domain
notes: NEM and VC-MMAF conjugates
- First Scan Tm [1]: 70 °C
- Second Scan Tm [1]: 71 °C
- Percent monomer [2]: 96%
- IC50 [3]: 0.34 nM

B13: L47C: cysteine variant of P54AR4-83v2 (SEQ ID NOS: 202 and 240); NEM and VC-MMAF conjugates (conjugate)
chain: B2 chain with C11S, L48C
modifications: NEM or vcMMAF conjugate; EGFR binding FN3 domain
notes: NEM and VC-MMAF conjugates
- First Scan Tm [1]: 67 °C
- Second Scan Tm [1]: 67 °C
- Percent monomer [2]: 100%
- IC50 [3]: 1.03 nM

B14: I45C: cysteine variant of P54AR4-83v2 (SEQ ID NOS: 201 and 239); NEM and VC-MMAF conjugates (conjugate)
chain: B2 chain with C11S, I46C
modifications: NEM or vcMMAF conjugate; EGFR binding FN3 domain
notes: NEM and VC-MMAF conjugates
- First Scan Tm [1]: 69 °C
- Second Scan Tm [1]: 68 °C
- Percent monomer [2]: 97%
- IC50 [3]: 0.63 nM

B15: S38C: cysteine variant of P54AR4-83v2 (SEQ ID NOS: 198 and 236); NEM and VC-MMAF conjugates (conjugate)
chain: B2 chain with C11S, S39C
modifications: NEM or vcMMAF conjugate; EGFR binding FN3 domain
notes: NEM and VC-MMAF conjugates
- First Scan Tm [1]: 65 °C
- Second Scan Tm [1]: 65 °C
- Percent monomer [2]: 93%
- IC50 [3]: 0.76 nM

B16: K40C: cysteine variant of P54AR4-83v2 (SEQ ID NOS: 199 and 237); NEM and VC-MMAF conjugates (conjugate)
chain: B2 chain with C11S, K41C
modifications: NEM or vcMMAF conjugate; EGFR binding FN3 domain
notes: NEM and VC-MMAF conjugates
- First Scan Tm [1]: 70 °C
- Second Scan Tm [1]: 70 °C
- Percent monomer [2]: 97%
- IC50 [3]: 0.73 nM

B17: S16C: cysteine variant of P54AR4-83v2 (SEQ ID NOS: 194 and 232); NEM and VC-MMAF conjugates (conjugate)
chain: B2 chain with C11S, S17C
modifications: NEM or vcMMAF conjugate; EGFR binding FN3 domain
notes: NEM and VC-MMAF conjugates
- First Scan Tm [1]: 68 °C
- Second Scan Tm [1]: 68 °C
- Percent monomer [2]: 75%
- IC50 [3]: 0.75 nM
